Measured values reported in US20090053241A1.

How the values were obtained:
1β4α (PDGFRβ/α chimera) = experiment: ELISA (OD450), panel 'PDGF-AA BINDING TO PDGFRβ/α CHIMERAS'; axis 'CO…ON (nM)', titrated species not stated
h5α (human) = h5α (human) (UniProt P16234); experiment: as above
[1] = molecular target: β1-3 (shorter version of PDGFRβ, D1D2D3); experiment: ELISA (OD450), panel 'PDGF-BB BINDING TO hPDGFRβ DELETIONS'; axis 'CO…ON (nM)', titrated species not stated

Chain of 1β4α (PDGFRβ/α chimera) (P16234 other isoform, or with tags, fused parts or gaps mutant): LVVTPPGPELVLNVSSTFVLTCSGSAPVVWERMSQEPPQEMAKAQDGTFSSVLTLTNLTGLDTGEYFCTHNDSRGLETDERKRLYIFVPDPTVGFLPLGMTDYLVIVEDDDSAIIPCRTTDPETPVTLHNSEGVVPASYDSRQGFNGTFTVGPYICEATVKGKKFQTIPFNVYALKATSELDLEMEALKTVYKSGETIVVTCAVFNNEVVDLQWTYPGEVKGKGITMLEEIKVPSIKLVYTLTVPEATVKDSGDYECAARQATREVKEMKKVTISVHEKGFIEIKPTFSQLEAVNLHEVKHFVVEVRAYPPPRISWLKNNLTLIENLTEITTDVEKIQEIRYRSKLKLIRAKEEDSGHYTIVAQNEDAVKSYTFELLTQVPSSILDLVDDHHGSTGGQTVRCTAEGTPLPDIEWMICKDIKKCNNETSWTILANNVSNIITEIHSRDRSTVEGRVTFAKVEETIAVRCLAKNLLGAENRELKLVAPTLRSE
Chain of PDGF-BB (ligand) (P01127 82-190): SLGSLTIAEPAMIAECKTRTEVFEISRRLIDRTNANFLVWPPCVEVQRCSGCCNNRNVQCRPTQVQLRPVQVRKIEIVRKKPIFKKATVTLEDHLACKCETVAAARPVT
Chain of h5α (human) (P16234 24-524 limits assumed): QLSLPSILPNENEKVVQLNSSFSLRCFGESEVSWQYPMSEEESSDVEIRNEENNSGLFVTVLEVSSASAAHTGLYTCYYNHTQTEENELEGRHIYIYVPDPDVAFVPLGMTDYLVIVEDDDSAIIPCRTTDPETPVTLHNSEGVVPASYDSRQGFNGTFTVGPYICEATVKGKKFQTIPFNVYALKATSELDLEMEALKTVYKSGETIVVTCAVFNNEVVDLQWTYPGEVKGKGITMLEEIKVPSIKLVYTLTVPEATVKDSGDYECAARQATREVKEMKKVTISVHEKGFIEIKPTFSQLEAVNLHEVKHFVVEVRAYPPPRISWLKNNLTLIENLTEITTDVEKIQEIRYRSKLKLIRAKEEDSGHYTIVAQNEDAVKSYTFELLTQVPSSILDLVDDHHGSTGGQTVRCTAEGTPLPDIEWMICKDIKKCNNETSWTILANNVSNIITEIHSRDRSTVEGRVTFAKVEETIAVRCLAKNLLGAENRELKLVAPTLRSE

Row | EC50 (read off the curve) (1β4α (PDGFRβ/α chimera)) [nM] | EC50 (read off the curve) (h5α (human)) [nM] | EC50 (read off the curve) [1] [nM] | Substance
1 | 0.05 | 0.02 | – | PDGF-AA (ligand)
2 | – | – | 0.06 | PDGF-BB (ligand)
